Reference: patent US20230250176A1 (DRAGONFLY THERAPEUTICS, published 2023)
Blank lines part the entries; values can stand above or below the binder they belong to.

How the values were obtained:
[1] = target: purified recombinant rat EGFR (rat, UniProt A0ABK0LZB0 35-651); experiment: SPR (Biacore 8K), 37 C
Method: (§1) Measurements were performed at physiological temperature of 37° C. using a Biacore8K SPR system.

[2] = target: purified recombinant mouse EGFR (mouse, UniProt Q01279 25-647, limits assumed); experiment: SPR (Biacore 8K), 37 C
Method: as §1

human NKG2D on cells = target: T1, human NKG2D on cells (human, UniProt P26718 1-216); experiment: flow cytometry, AF647-conjugated test article on KHYG-1 parental cells (NKG2D+, CD16a-)
T1 construct: whole, on cells; also called NKG2D on KHYG-1 parental cells; NKG2D on CD8+ T cells and NK cells
T1 sequence (looked up): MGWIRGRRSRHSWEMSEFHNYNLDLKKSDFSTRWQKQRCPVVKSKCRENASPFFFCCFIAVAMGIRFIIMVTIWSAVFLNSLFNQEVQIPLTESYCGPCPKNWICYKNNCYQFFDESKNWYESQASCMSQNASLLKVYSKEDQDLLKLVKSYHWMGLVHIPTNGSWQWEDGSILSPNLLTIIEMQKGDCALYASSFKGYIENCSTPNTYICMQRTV

[3] = target: T2, mouse Tyrp1 on B16F10 and CT26-Tyrp1 cells (mouse, UniProt P07147 25-537); experiment: flow cytometry on B16F10 cells, anti-mouse IgG-Fc secondary, MFI minus background, 4-parameter fit
T2 construct: whole, on cells

[4] = target: T2, mouse Tyrp1 on B16F10 and CT26-Tyrp1 …; experiment: flow cytometry on CT26-Tyrp1 cells, anti-mouse IgG-Fc secondary, MFI minus background, 4-parameter fit

binding result [1]: no binding | binding result [2]: no binding | binding result (human NKG2D on cells): no binding (tested: 800 nM)
B1: panitumumab (antibody, IgG2, V domains shown)
VH: QVQLQESGPGLVKPSETLSLTCTVSGGSVSSGDYYWTWIRQSPGKGLEWIGHIYYSGNTNYNPSLKSRLTISIDTSKTQFSLKLSSVTAADTAIYYCVRDRVTGAFDIWGQGTMVTVSS
VL: DIQMTQSPSSLSASVGDRVTITCQASQDISNYLNWYQQKPGKAPKLLIYDASNLETGVPSRFSGSGSGTDFTFTISSLQPEDIATYFCQHFDHLPLAFGGGTKVEIK

EC50 [3]: 11 nM | EC50 [4]: 14.6 nM
B2: TA99 (antibody, V domains shown)
VH: EVQLQQSGAELVRPGALVKLSCKTSGFNIKDYFLHWVRQRPDQGLEWIGWINPDNGNTVYDPKFQGTASLTADTSSNTVYLQLSGLTSEDTAVYFCTRRDYTYEKAALDYWGQGASVIVSS
VL: DIQMSQSPASLSASVGETVTITCRASGNIYNYLAWYQQKQGKSPHLLVYDAKTLADGVPSRFSGSGSGTQYSLKISSLQTEDSGNYYCQHFWSLPFTFGSGTKLEIK
